Drawing on article PMC5964048, this text covers Kd for 1 substance.

In the assay the target is Fluorescein-labeled murine N-WASP-VCA (a.a. 399-501) (murine) (UniProt Q91YD9). Briefly: fluorescence polarisation.

One may read the Kd as a measure of binding affinity in units of concentration.

“ACD-cross-linked actin oligomers (from UniProt P68135 1-377)” came in with a Kd of 8 nM.
